Measured values published in US20260201069A1, “ANTIBODIES THAT SPECIFICALLY BIND MODIFIED OLIGONUCLEOTIDES” (Hoffmann-La Roche Inc., priority 2024, published 2026).

B1: 1.7.15 (antibody, V domains shown)
VH: QVQLKQSGPSFVQPSQSLSITCTVSGFSLTTYGVHWVRQSPGKGLEWLGVIWRSGGTDYNAAFMSRLSITKDNSKSQVFFKMNSLQTDDTAIYYCTNLYYWGQGTTLTVSS
VL: DIVMTQATFSNPVTLGTSVSISCRSSKSLLRSNGITYLYWYLQKPGQSPQLLIYQMSNLASGVPDRFSSSGSGTDFTLRISRVEAEDVGVYYCGQNLELPYTFGSGTKVEIK
B2: clone 1.7.15: anti-LNA monoclonal hybridoma antibody, VH SEQ ID NO: 12, VL SEQ ID NO: 21 (antibody, listed as Mus musculus, V domains shown)
VH: QVQLKQSGPSFVQPSQSLSITCTVSGFSLTTYGVHWVRQSPGKGLEWLGVIWRSGGTDYNAAFMSRLSITKDNSKSQVFFKMNSLQTDDTAIYYCTNLYYWGQGTTLTVSS
VL: DIVMTQATFSNPVTLGTSVSISCRSSKSLLRSNGITYLYWYLQKPGQSPQLLIYQMSNLASGVPDRFSSSGSGTDFTLRISRVEAEDVGVYYCGQNLELPYTFGSGTKVEIK
B3: clone 1.5.13: anti-LNA monoclonal hybridoma antibody, VH SEQ ID NO: 81, VL SEQ ID NO: 89 (antibody, listed as Mus musculus, V domains shown)
VH: QVQLKESGPGLVAPSQSLSITCTISGFSLTTYGVHWVRQPPGMGLEWLVVIWGDGSTTYNSALRSRLSISKDNSRSQVFLKMNSLQTDDTAMYYCARHGGRYALDYWGQGTSVTVSS
VL: DIVMTQSPATLSVTPGDRVSLSCRASQSIGGYLHWYQQKSHESPRLLIKYASQSMSGIPPRFSGSGSGSDFTLSINSVAPEDVGVYYCQAGHTFPLTFGAGTKL
B4: 1.2.8 (antibody, listed as Mus musculus, V domains shown)
VH: QIQLRESGPGLVAPSQSLSITCTVSGFSLTNYGVHWVRQPPGKGLEWLGVIWAGGSTIYNSALMSRLSISRDNSKSQVFLEMNSLQTYDTAMYYCARDRPFDGFFFSYWGQGTALTVSS
VL: DVLMTQTPLSLPVSLGDQASISCRSSQAIVHRSGNTFLEWYLQKPGQSPKLLIYKVSNRFSGVPDRFSGSGSGTDFTLKINRVEAEDLGVYYCFQGSHVPYTFGSGTKLEIK
B5: clone 1.2.8: anti-LNA monoclonal hybridoma antibody, VH SEQ ID NO: 30, VL SEQ ID NO: 39 (antibody, listed as Mus musculus, V domains shown)
VH: QIQLRESGPGLVAPSQSLSITCTVSGFSLTNYGVHWVRQPPGKGLEWLGVIWAGGSTIYNSALMSRLSISRDNSKSQVFLEMNSLQTYDTAMYYCARDRPFDGFFFSYWGQGTALTVSS
VL: DVLMTQTPLSLPVSLGDQASISCRSSQAIVHRSGNTFLEWYLQKPGQSPKLLIYKVSNRFSGVPDRFSGSGSGTDFTLKINRVEAEDLGVYYCFQGSHVPYTFGSGTKLEIK
B6: 1.4.10 (antibody, listed as Mus musculus, V domains shown)
VH: QIQLRESGPGLVAPSQSLSITCTVSGFSLVNYGIHWVRQPPGKGLEWLGVIWAGGSTIYNSALMSRLSISRDNSKNQVFLEMNSLQTYDTAMYYCARDRPFDGFFFSYWGQGTALTVSS
VL: DVLMTQTPLSLPVSLGDQASISCRSSQAIVHRSGNTFLEWYLQKPGQSPKLLIYKVSNRFSGVPDRFSGSGSGTDFTLKINRVEAEDLGVYYCFQGSHVPYTFGSGTKLEIK
B7: clone 1.4.10: anti-LNA monoclonal hybridoma antibody, VH SEQ ID NO: 65, VL SEQ ID NO: 73 (antibody, listed as Mus musculus, V domains shown)
VH: QIQLRESGPGLVAPSQSLSITCTVSGFSLVNYGIHWVRQPPGKGLEWLGVIWAGGSTIYNSALMSRLSISRDNSKNQVFLEMNSLQTYDTAMYYCARDRPFDGFFFSYWGQGTALTVSS
VL: DVLMTQTPLSLPVSLGDQASISCRSSQAIVHRSGNTFLEWYLQKPGQSPKLLIYKVSNRFSGVPDRFSGSGSGTDFTLKINRVEAEDLGVYYCFQGSHVPYTFGSGTKLEIK
B8: 1.9.21 (antibody, V domains shown)
VH: QVQLQQSGAELVRPGTSVKVSCKASGYAFTNYLIEWIKQRPGQGLEWIGVINPGSGGTNYNEKFRVKATLTADKSSSTAYMQLSSLTSDDSAVYFCARGGGYYWGQGTLVTVSA
VL: DIVMTQAAPSVPVTPGESVSISCRSSKSLLHSNGNTYLFWFLQRPGQSPQVLIYRMSNLASGVPDRFSGSGSGTAFTLRISRVEAEDVGVYYCMQHLEYPYTFGSGTRLEIK
B9: clone 1.9.21: anti-LNA monoclonal hybridoma antibody, VH SEQ ID NO: 48, VL SEQ ID NO: 57 (antibody, listed as Mus musculus, V domains shown)
VH: QVQLQQSGAELVRPGTSVKVSCKASGYAFTNYLIEWIKQRPGQGLEWIGVINPGSGGTNYNEKFRVKATLTADKSSSTAYMQLSSLTSDDSAVYFCARGGGYYWGQGTLVTVSA
VL: DIVMTQAAPSVPVTPGESVSISCRSSKSLLHSNGNTYLFWFLQRPGQSPQVLIYRMSNLASGVPDRFSGSGSGTAFTLRISRVEAEDVGVYYCMQHLEYPYTFGSGTRLEIK

Key:
Assay type in all cases: binding
DNA1-Bi = experiment: Hybridoma antibody specificity immunoassay; conditions: hybridoma antibody subclones, Table 1-4
Source text: (§1) From two selected animals, spleen cells were fused to Ag8 cells to generate antibody-producing hybridomas using state-of-the-art hybridoma cell technology. After cell fusion, hybridomas were screened for specific reactivity with LNA-containing ASOs using DNA-containing ASOs for specificity evaluation.
(§2) In more detail, from two cell fusions, 3840 initial hybridoma clones resulting in 33 primary hybridoma clones were obtained. Thereof, 11 were selected for further characterization of binding characterization by biomolecular interaction analysis (kinetic and thermodynamic surface plasmon resonance). Five primary hybridoma clones were further processed by subcloning to generate monoclonal hybridoma cell culture clones.
as §1, with “From immunoreactive mice (2 animals selected),” for “From two selected animals,”, “antibody-producing fusion cells” for “antibody-producing hybridomas”
as §2, with “From two” for “In more detail, from two”, “binding properties” for “binding characterization”, “resonance). Finally, 5” for “resonance). Five”, “culture clones (Tables 1-3 and 1-4).” for “culture clones.”

DNA2-Bi = experiment: Hybridoma antibody specificity immunoassay; conditions: hybridoma antibody subclones, Table 1-4
Source text: as §1, §2
as §1, with “From immunoreactive mice (2 animals selected),” for “From two selected animals,”, “antibody-producing fusion cells” for “antibody-producing hybridomas”
as §2, with “From two” for “In more detail, from two”, “binding properties” for “binding characterization”, “resonance). Finally, 5” for “resonance). Five”, “culture clones (Tables 1-3 and 1-4).” for “culture clones.”

DNA4b-Bi = experiment: Hybridoma antibody specificity immunoassay; conditions: hybridoma antibody subclones, Table 1-4
Source text: as §1, §2
as §1, with “From immunoreactive mice (2 animals selected),” for “From two selected animals,”, “antibody-producing fusion cells” for “antibody-producing hybridomas”
as §2, with “From two” for “In more detail, from two”, “binding properties” for “binding characterization”, “resonance). Finally, 5” for “resonance). Five”, “culture clones (Tables 1-3 and 1-4).” for “culture clones.”

LNA1-Bi = experiment: Hybridoma antibody specificity immunoassay; conditions: hybridoma antibody subclones, Table 1-4
Source text: as §1, §2
as §1, with “From immunoreactive mice (2 animals selected),” for “From two selected animals,”, “antibody-producing fusion cells” for “antibody-producing hybridomas”
as §2, with “From two” for “In more detail, from two”, “binding properties” for “binding characterization”, “resonance). Finally, 5” for “resonance). Five”, “culture clones (Tables 1-3 and 1-4).” for “culture clones.”

LNA2-Bi = experiment: Hybridoma antibody specificity immunoassay; conditions: hybridoma antibody subclones, Table 1-4
Source text: as §1, §2
as §1, with “From immunoreactive mice (2 animals selected),” for “From two selected animals,”, “antibody-producing fusion cells” for “antibody-producing hybridomas”
as §2, with “From two” for “In more detail, from two”, “binding properties” for “binding characterization”, “resonance). Finally, 5” for “resonance). Five”, “culture clones (Tables 1-3 and 1-4).” for “culture clones.”

LNA4b-Bi = experiment: Hybridoma antibody specificity immunoassay; conditions: hybridoma antibody subclones, Table 1-4
Source text: as §1, §2
as §1, with “From immunoreactive mice (2 animals selected),” for “From two selected animals,”, “antibody-producing fusion cells” for “antibody-producing hybridomas”
as §2, with “From two” for “In more detail, from two”, “binding properties” for “binding characterization”, “resonance). Finally, 5” for “resonance). Five”, “culture clones (Tables 1-3 and 1-4).” for “culture clones.”

[1] = test system: LNA sequence (nucleotides/sequence of bases); experiment: Epitope mapping solid phase immunoassay (ELISA); conditions: for Impact of LNA sequence: signal-to-noise (S/N) class
Source text: (§3) The epitope was mapped using immunoassays with capture molecules containing the following binding epitopes as well as combinations thereof: • LNA (2′-0,4-C-methylene), • phosphorothioate in the NA backbone, • nucleotides/sequence of bases, • DNA, • GalNAc-C6-modification.
(§4) The results of the epitope characterization of the antibodies according to the current invention by solid phase immunoassay (ELISA) using different biotinylated LNA, PS-backbone or DNA-containing NA-oligonucleotides as outlined above are shown in FIGS. 1 to 5.
(§5) The selected monoclonal LNA-specific Abs were further characterized for binding characteristics and epitope mapped by immunoassay using capture molecules containing the following binding epitopes and combinations thereof • LNA (2′-O.4-C-methylene) • phosphorothioate in the NA backbone • nucleotides/sequence of bases • DNA • GalNAc-C6-modification
(§6) The results of the antibody characterization by solid phase immunoassay (ELISA) using different biotinylated LNA, PS-backbone or DNA-containing NA-oligonucleotides are shown in FIGS. 1 to 5.

DNA = experiment: Epitope mapping solid phase immunoassay (ELISA); conditions: signal-to-noise (S/N) class
Source text: as §3, §4, §5, §6

GalNAc-C6-modification = experiment: Epitope mapping solid phase immunoassay (ELISA); conditions: signal-to-noise (S/N) class
Source text: as §3, §4, §5, §6

LNA (2′-O,4-C-methylene) = experiment: Epitope mapping solid phase immunoassay (ELISA); conditions: signal-to-noise (S/N) class
Source text: as §3, §4, §5, §6

[2] = test system: Phosphorothioate Backbone; experiment: Epitope mapping solid phase immunoassay (ELISA); conditions: signal-to-noise (S/N) class
Source text: as §3, §4, §5, §6

Row | Molecule | Signal DNA1-Bi (DNA1-Bi) | Signal DNA2-Bi (DNA2-Bi) | Signal DNA4b-Bi (DNA4b-Bi) | Signal LNA1-Bi (LNA1-Bi) | Signal LNA2-Bi (LNA2-Bi) | Signal LNA4b-Bi (LNA4b-Bi) | LNA sequence specificity [1] | Reactivity to DNA (DNA) | Reactivity to GalNAc-C6-modification (GalNAc-C6-modification) | Reactivity to LNA (2′-O,4-C-methylene) (LNA (2′-O,4-C-methylene)) | Impact of LNA sequence [1] | Reactivity to Phosphorothioate Backbone [2]
1 | B1 | 0.060 OD | 0.150 OD | 0.035 OD | 2.195 OD | 2.815 OD | >4.000 OD | LNA sequence specific binders |  |  |  |  | 
2 | B2 |  |  |  |  |  |  |  | − (−: S/N <2) | − (−: S/N <2) | − (−: S/N <2) | +++ (+++: S/N ≥10) | +++ (+++: S/N ≥10)
3 | B3 |  |  |  |  |  |  |  | − (−: S/N <2) | − (−: S/N <2) | − (−: S/N <2) | −/+ (−/+: S/N: 2 to 3) | +++ (+++: S/N ≥10)
4 | B4 | 0.041 OD | 0.037 OD | 0.034 OD | 2.330 OD | 2.012 OD | 1.916 OD |  |  |  |  |  | 
5 | B5 |  |  |  |  |  |  |  | − (−: S/N <2) | − (−: S/N <2) | − (−: S/N <2) | − (−: S/N <2) | +++ (+++: S/N ≥10)
6 | B6 | 0.084 OD | 0.049 OD | 0.038 OD | 3.398 OD | 3.154 OD | 2.977 OD |  |  |  |  |  | 
7 | B7 |  |  |  |  |  |  |  | − (−: S/N <2) | − (−: S/N <2) | − (−: S/N <2) | + (+: S/N: 3 to 5) | +++ (+++: S/N ≥10)
8 | B8 | 0.064 OD | 0.039 OD | 0.110 OD | >4.000 OD | >4.000 OD | 3.556 OD | LNA sequence specific binders |  |  |  |  | 
9 | B9 |  |  |  |  |  |  |  | − (−: S/N <2) | − (−: S/N <2) | ++ (++: S/N: 5 to 10) | +++ (+++: S/N ≥10) | +++ (+++: S/N ≥10)
